Data: patent US5985836A, “Alpha-1 proteinase inhibitor binding peptides” (Bayer Corporation, priority 1998, dated 1999)
Values belong to the substance of their own block, whether it stands above or below them.

Key:
[1] = biological target: T1, A1PI (Homo sapiens, UniProt P01009); test: Capture and elution of active A1PI with 2M urea buffer (elastase inhibition activity assay and immunonephelometry); type: binding; conditions: for Mass A1PI in Urea Eluate (mg), Activity / Mass A1PI in Urea Eluate (mg), Nephelometry: 1 mg A1PI, eluted with 2M urea, pH 6; for Mass A1PI in Urea Eluate (mg), Activity: elastase inhibition activity assay; for Mass A1PI in Urea Eluate (mg), Nephelometry: immunonephelometry
T1 construct: Human plasma is currently the only approved source of therapeutic AlPI
T1 sequence (P01009 25-418): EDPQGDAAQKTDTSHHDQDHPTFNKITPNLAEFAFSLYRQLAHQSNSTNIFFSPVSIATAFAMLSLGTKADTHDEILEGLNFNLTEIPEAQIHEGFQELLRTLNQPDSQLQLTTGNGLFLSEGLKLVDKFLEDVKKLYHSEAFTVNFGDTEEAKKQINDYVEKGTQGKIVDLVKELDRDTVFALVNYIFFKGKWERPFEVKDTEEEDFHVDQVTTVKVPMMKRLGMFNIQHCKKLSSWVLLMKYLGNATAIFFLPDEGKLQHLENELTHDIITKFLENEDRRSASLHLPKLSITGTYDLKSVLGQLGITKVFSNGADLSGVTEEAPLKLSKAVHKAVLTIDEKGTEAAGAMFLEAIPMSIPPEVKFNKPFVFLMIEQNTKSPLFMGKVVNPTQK

[2] = biological target: T1, A1PI; test: A1PI binding on peptide-resin column, injection of 1 mg A1PI in equilibration buffer; conditions: sequence order, 1 mg AlPI
Method in brief: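 Peptides synthesized on A-Totda-Toyopearl chelate resin (0.1 mmole/g) packed in 0.4×5 cm columns; 1 mg A1PI injected in equilibration buffer at 4 °C or 20 °C, 865 or 523 μl/min. Flowthrough, 1M/3M NaCl washes and 2% acetic acid eluate quantified by A280 or immunonephelometry as percent of total eluted.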

[3] = biological target: T1, A1PI; test: A1PI purification from 5 mg hSA + 1 mg A1PI on peptide column, A1PI mass balance; type: binding; conditions: Table 19, A1PI, 5 mg hSA + 1 mg A1PI; for Mass Protein per Eluate Fraction, 1M NaCl / Mass Protein per Eluate Fraction, 2% Acetic Acid / Mass Protein per Eluate Fraction, Flow: * Below detection limit; for Percent Eluted by Fraction, 1M NaCl / Percent Eluted by Fraction, 2% Acetic Acid / Percent Eluted by Fraction, 3M NaCl / Percent Eluted by Fraction, Flow: relative to total loaded
Method in brief: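 Peptides on A-Totda-Toyopearl resin (0.1 mmole/g) in 0.4×5 cm columns; 5 mg hSA + 1 mg A1PI loaded at 4 °C or 20 °C with 10 min residence (17 μl/min). Steps of 1M and 3M NaCl, then 2% acetic acid; fractions quantified by immunonephelometry for mass balance.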

[4] = mass of A1PI by activity assay relative to immunonephelometry, urea eluate, 4° C.

Substance: Neat A1PI: freshly dissolved human alpha-1 proteinase inhibitor fed to the columns
Mass A1PI in Urea Eluate (mg), Activity ([1]; 4° C.): 0.87 mg | Mass A1PI in Urea Eluate (mg), Nephelometry ([1]; 4° C.): 1.10 mg | Specific Activity ([1]; activity assay mass relative to immunonephelometry mass): 0.79 mg/mg | Specific Activity [1, 4]: 0.79 mg/mg

Percent AlPI Eluted by Fraction, 1M NaCl ([2]; 4° C.): 29% | Percent AlPI Eluted by Fraction, 2% Acetic Acid ([2]; 4° C.): 71% | Percent AlPI Eluted by Fraction, Flowthrough ([2]; 4° C.): 0% | Percent AlPI Eluted by Fraction, 1M NaCl ([2]; 20° C.): 3% | Percent AlPI Eluted by Fraction, 2% Acetic Acid ([2]; 20° C.): 97% | Percent AlPI Eluted by Fraction, Flowthrough ([2]; 20° C.): 0% | Mass Protein per Eluate Fraction, 1M NaCl ([3]; 4° C.): 0.14 mg | Mass Protein per Eluate Fraction, 2% Acetic Acid ([3]; 4° C.): 0.43 mg | Mass Protein per Eluate Fraction, Flow ([3]; 4° C.): 0.31 mg | Percent Eluted by Fraction, 1M NaCl ([3]; 4° C.): 16% | Percent Eluted by Fraction, 2% Acetic Acid ([3]; 4° C.): 49% | Percent Eluted by Fraction, 3M NaCl ([3]; 4° C.): 0% | Percent Eluted by Fraction, Flow ([3]; 4° C.): 35% | Mass Protein per Eluate Fraction, 1M NaCl ([3]; 20° C.): 0.00 mg | Mass Protein per Eluate Fraction, 2% Acetic Acid ([3]; 20° C.): 0.65 mg | Mass Protein per Eluate Fraction, Flow ([3]; 20° C.): 0.09 mg | Percent Eluted by Fraction, 1M NaCl ([3]; 20° C.): 0% | Percent Eluted by Fraction, 2% Acetic Acid ([3]; 20° C.): 88% | Percent Eluted by Fraction, 3M NaCl ([3]; 20° C.): 0% | Percent Eluted by Fraction, Flow ([3]; 20° C.): 12% | Mass A1PI in Urea Eluate (mg), Activity ([1]; 4° C.): 0.56 mg | Mass A1PI in Urea Eluate (mg), Nephelometry ([1]; 4° C.): 0.71 mg | Specific Activity [1, 4]: 0.79 mg/mg
Substance: RVLFIH: reversed sequence of VIFLVR with C-terminal His
